# Publication PMC3056158
# B1: Immunity factor for SPN (IFS), full length, residues 1-161 (natural protein)
# chain: MYKVPKGLEHYQKMFQKEVTVNDLKKYLIGSDKEYRITRRDSYMGDISDPEVILEYGVYPAFIKGYTQLKANIEEALLEMSNSGQALDIYQAVQTLNAENMLLNYYESLPFYLNRQSILANITKALKDAHIREAMAHYKLGEFAHYQDTMLDMVERTIETF
# modifications: selenomethionine in place of methionine in the derivative used for MAD phasing
# Target: SPNct, C-terminal glycohydrolase domain of Streptococcus pyogenes beta-NAD+ glycohydrolase (SPN), residues 191-451 (Streptococcus pyogenes)
# Assay: crystal structure
binder,measurement,value
B1,stoichiometry N,1
